Results as given in patent US8013137B2, “Modified enteropeptidase protein” (National University Corporation Hokkaido University, priority 2006, dated 2011).
Where a chain is given by its changes, count along the chain named. Names may count otherwise.

Experiments:
[1] = tested on: GD4K-βNA; experiment: EP activity and kinetic study with specific substrate GD4K-βNA; type: biochemical; conditions: for Km / kcat: substrate GD4K-βna
Method: (§1) (A) Active recombinant EP proteases were assayed using a GD4K-βNA (SEQ ID NO: 6) substrate as a substrate. Bovine (Nvg), bovine EP protease available from Novagen; Bovine (Neb), bovine EP protease available from NEB. (B) Active recombinant EP proteases were assayed using various synthetic peptide substrates. (C) Active EP proteases were analyzed by gelatin zymography. (D) Fibronectin (4 μg) was incubated with active EPs (100 ng) at 37° C. for 12 h. (E) Laminin ((10 μg) was incubated with active recombinant EPs (100 ng) at 37° C. for 12 h. (F) Two μg of the control protein containing the D4K site (SEQ ID NO: 1) was incubated with active recombinant EPs (100 ng) at 37° C. for 1 h.
(A) The purity of purified recombinant Medaka EP-1 and EP-2 protease was assessed by SDS-PAGE. Lane 1, Medaka EP fusion protein; lane 2, Medaka EP protease treated with immobilized trypsin; lane 3, Medaka EP protease purified using a resource Q column. (B) The enzyme activities of EP proteases were determined at various pHs using GD4K-βNA (SEQ ID NO: 6) as a substrate. (C) Recombinant Medaka trypsinogen was incubated at 37° C. with EPs for 15, 30 and 45 min. After incubation, samples were analyzed by SDS-PAGE and visualized by CBB staining (upper panel). The relative amount of the active form of Medaka trypsin at each time point were calculated based on the results shown in the upper panel (lower panel). The results are presented as the means (±SD) of three separate experiments.
(§2) EP activity was routinely determined using the specific substrate Gly-Asp-Asp-Asp-Asp-Lys-β-naphthylamide (GD4K-βNA) (SEQ ID NO: 6) (Sigma) according to the method of Mikhailova and Rumsh (Mikhailova et al., FEBS Lett., 442:226-230 (1999)). Enzyme activity for various 4-methylcoumaryl-7-amide (MCA)-containing peptide substrates was determined by the method of Barrett (Barrett et al., J., Biochem. J., 187:909-912 (1980)). For kinetic studies, initial velocities, extrapolated from the plot of product versus time, were transformed into double-reciprocal plots (Lineweaver et al., J. Am. Chem. Soc., 56:658-663 (1934)). The maximum velocities (Vmax) and Km and kcat values were obtained from the intercepts of these plots. For all experiments, the results of at least three separate determinations are shown.

[2] = tested on: recombinant fusion protein of human kallikrein 8 (hK8); experiment: Cleavage of recombinant fusion protein of human kallikrein 8 (hK8); type: biochemical; conditions: 37° C., 2 h, 100 ng EP
Method: (§3) (A) A recombinant fusion protein of Medaka gelatinase A (5 μg) was separately incubated with active EP proteases (100 ng) at 37° C. for 1 h, and analyzed by SDS-PAGE. (B) A recombinant fusion protein of human kallikrein 8 (hK8) (5 μg) was incubated with active EP proteases (100 ng) at 37° C. for 2 h. After incubation, the samples were analyzed by SDS-PAGE (upper panel), or assayed for activity with Pro-Phe-Arg-MCA (middle panel), or Boc-Glu(OBzl)-Ala-Arg-MCA (lower panel). […] The samples were then analyzed by SDS-PAGE/Western blotting using anti-human tPA antibody (upper panel) or anti-His probe antibody (lower panel). The position of sctPA (58- and 61-kDa) detected with the antibodies is shown.
(§4) The effect of Medaka EP serine protease on various fusion proteins containing a D4K-cleavage site (SEQ ID NO: 1) was examined. […]

[3] = tested on: Pro-Phe-Arg-MCA; experiment: Activity assay of EP proteases and EP-treated hK8 samples with Pro-Phe-Arg-MCA (FIG. 4B middle); type: biochemical
Method: as §3, §2
Next, a 35.5-kDa protein of human kallikrein 8 (hK8) in the same E. coli expression system was synthesized. Digestion with Medaka wild-type and mutant EP proteases generated 31.5-kDa active hK8 by cleaving the D4K sequence (SEQ ID NO: 1) (FIG. 4B, Top). […] The EP protease-treated samples were directly assayed for hK8 activity using Pro-Phe-Arg-MCA, a good synthetic peptide substrate of hK8 (Rajapakse et al., FEBS Lett., 579:6879-6884 (2005)). […] The substrate Boc-Glu(OBzl)-Ala-Arg-MCA, which is slightly cleaved by active hK8, was rapidly hydrolyzed with the samples treated with mammalian, but not Medaka, EP proteases (FIG. 4B, Bottom).

[4] = tested on: Boc-Glu(OBzl)-Ala-Arg-MCA, Z-Phe-Arg-MCA, and Pro-Phe-Arg-MCA; experiment: Amidolytic activity for synthetic MCA-containing peptide substrates (panel); type: biochemical; conditions: FIG. 2B
[5] = tested on: recombinant Medaka trypsinogen; experiment: Activation of recombinant Medaka trypsinogen, SDS-PAGE; type: biochemical; conditions: 37° C., 15, 30 and 45 min
[6] = Enzyme stability, residual activity using GD4K-βNA; type: physicochemical
Method: […] Aliquots of the reaction mixtures were taken at the indicated times for an activity assay using GD4K-βNA (SEQ ID NO: 6) as a substrate. The enzyme activities relative to that at 0-time are shown.
[…] The enzyme activity was measured at various time points (0 to 96 h) using GD4K-βNA (SEQ ID NO: 6) as a substrate.

[7] = tested on: gelatin; experiment: Gelatin zymography; type: biochemical; conditions: FIG. 2C
Method: as §1, §4

[8] = tested on: Human plasma fibronectin; experiment: Hydrolysis of fibronectin, SDS-PAGE; type: biochemical; conditions: 37° C., 12 h, 100 ng EP
Method: as §1, §4

[9] = tested on: mouse laminin; experiment: Hydrolysis of laminin, SDS-PAGE; type: biochemical; conditions: 37° C., 12 h, 100 ng EP
Method: as §1, §4

[10] = tested on: D4K-cleavage site-containing control protein; experiment: Cleavage of D4K-cleavage site-containing control protein (Novagen); type: biochemical; conditions: 37° C., 1 h, 100 ng EP
Method: as §1, §4

[11] = tested on: GD4K-βNA and the three MCA-containing substrates; experiment: Specific activities of wild-type and mutant EP protease using synthetic peptide substrates (FIG. 3A); type: biochemical
Method: (§5) (A) The specific activities of wild-type (EP-1) and mutant EP protease were determined using synthetic peptide substrates. (B) High-molecular-weight (HMW) kininogen (5 μg) was incubated with active EP proteases (100 ng) at 37° C. for 2 h and analyzed by SDS-PAGE. (C) Fibrinogen (10 μg) was incubated with active EP proteases (100 ng) at 37° C. for 12 h and analyzed by SDS-PAGE.
as §2

[12] = tested on: human high-molecular-weight (HMW) kininogen; experiment: Hydrolysis of HMW kininogen, SDS-PAGE; type: biochemical; conditions: 37° C., 2 h, 100 ng EP
Method: as §5
(§6) The effect of Medaka EP serine protease on various fusion proteins containing a D4K-cleavage site (SEQ ID NO: 1) was examined. Human plasma fibronectin (Chemicon, Temecula, Calif.), human fibrinogen (Merk Biosciences, Tokyo, Japan), human high-molecular-weight (HMW) kininogen (Calbiochem, La Jolla, Calif.), mouse laminin (Biomedical Technologies Inc., Stoughton, Mass.), D4K-cleavage site-containing (SEQ ID NO: 1) control protein (Novagen), Medaka gelatinase A (Ogiwara et al., Proc. Natl. Acad. Sci. USA, 102:8442-8447 (2005)) and trypsinogen (this study), human kallikrein 8 (hK8) (Rajapakse et al., FEBS Lett., 579:6879-6884 (2005)) and human tissue-type plasminogen activator (tPA) were incubated at 37° C. in 20 mM Tris.HCl buffer (pH 7.4) containing 50 mM NaCl and 2 mM CaCl2 with various EP serine proteases at ratios (w/w) ranging from 20:1 to 100:1. After incubation, samples were subjected to SDS-PAGE followed by Coomassie Brilliant Blue staining. […]

[13] = tested on: human fibrinogen; experiment: Hydrolysis of fibrinogen, SDS-PAGE; type: biochemical; conditions: 37° C., 12 h, 100 ng EP
Method: as §5, §6

[14] = tested on: recombinant fusion protein of Medaka gelatinase A; experiment: Cleavage of recombinant fusion protein of Medaka gelatinase A; type: biochemical; conditions: 37° C., 1 h, 100 ng EP
[15] = tested on: human single-chain tPA fusion protein; experiment: Cleavage of human single-chain tPA fusion protein, Western blotting; type: biochemical; conditions: 37° C., 1 h, 100 ng EP
[16] = tested on: medaka EP-1 protease; experiment: Inhibitor assay, enzyme activity measured using GD4K-βNA as a substrate; type: biochemical, medaka (Oryzias latipes); conditions: inhibitor 0.1 mg/ml; GD4K-βNA substrate; 10 min preincubation
[17] = tested on: medaka EP-2 protease; experiment: as above; type: biochemical, medaka (Oryzias latipes); conditions: inhibitor 0.1 mg/ml; GD4K-βNA substrate; 10 min preincubation

B1: Porcine: active recombinant enzyme of the porcine EP serine protease domain (Ile800 to His1034) (protein)
chain: IVGGNDSREGAWPWVVALYYNGQLLCGASLVSRDWLVSAAHCVYGRNLEPSKWKAILGLHMTSNLTSPQIVTRLIDEIVINPHYNRRRKDSDIAMMHLEFKVNYTDYIQPICLPEENQVFPPGRICSIAGWGKVIYQGSPADILQEADVPLLSNEKCQQQMPEYNITENMMCAGYEEGGIDSCQGDSGGPLMCLENNRWLLAGVTSFGYQCALPNRPGVYARVPKFTEWIQSFLH
Km [1]: 400 µM | kcat [1]: 8.83 s⁻¹ | cleavage of hK8 fusion protein [2]: extensively degraded the substrate | enzyme activity of the EP protease itself with Pro-Phe-Arg-MCA [3]: considerable enzyme activities were detected

B2: EP-1: recombinant serine protease domain of Medaka (Oryzias latipes) enteropeptidase-1, wild type, SEQ ID NO: 2 (protein)
chain: VVGGVNAEKGAWPWMVSLHWRGRHGCGASLIGRDWLLTAAHCVYGKNTHLQYWSAVLGLHAQSSMNSQEVQIRQVDRIIINKNYNRRTKEADIAMMHLQQPVNFTEWVLPVCLASEDQHFPAGRRCFIAGWGRDAEGGSLPDILQEAEVPLVDQDECQRLLPEYTFTSSMLCAGYPEGGVDSCQGDSGGPLMCLEDARWTLIGVTSFGVGCGRPERPGAYARVSAFTSWIAETRRSSFSDLD
modifications: Oryzias latipes
rate of GD4K-βNA cleavage compared with porcine and bovine enzymes ([1]; FIG. 2A): at a rate comparable to those of the porcine and bovine enzymes | activity for GD4K-βNA relative to EP-2 ([1]; FIG. 8B): approximately three times more active than EP-2 | pH of maximal activity for GD4K-βNA ([1]; serine protease domain, FIG. 8B): 8 | Km [1]: 700 µM | kcat [1]: 15.7 s⁻¹ | amidolytic activities for synthetic MCA-containing peptide substrates compared with mammalian EP proteases [4]: much lower than those of the EP proteases of mammalian origin | conversion of recombinant Medaka trypsinogen to active trypsin [5]: converted to active trypsin by EP-1 faster than by EP-2 | stability of enzyme activity on storage ([6]; 4° C.): the initial enzyme activity was retained at both temperatures for at least six months | loss of enzyme activity ([6]; 37° C., neutral pH, after 4 days of incubation): about 30% | stability of enzyme activity on storage ([6]; −20° C.): the initial enzyme activity was retained at both temperatures for at least six months | hydrolysis of gelatin [7]: Little or no hydrolysis | hydrolysis of fibronectin [8]: Little or no hydrolysis | hydrolysis of laminin [9]: Little or no hydrolysis | cleavage of fusion protein containing an EP-cleavage site (Novagen) [10]: specifically cleaved the fusion protein to generate two polypeptides having expected molecular masses of 16- and 32-kDa | enzyme activity of the EP protease itself with Pro-Phe-Arg-MCA [3]: none of the Medaka EP proteases (wild-type EP-1, K63R, E173A, or E193A) showed any significant enzyme activity

B3: E173A: EP-1 with E173A mutation, SEQ ID NO: 4 (protein)
chain: B2 chain with E156A
modifications: Oryzias latipes
Km [1]: 300 µM | kcat [1]: 5.33 s⁻¹ | enzyme activity for synthetic peptide substrates compared with the wild-type enzyme [11]: significantly lower activities than the wild-type enzyme toward all the synthetic substrates tested | nonspecific proteolytic activity for human HMW kininogen [12]: retained a low nonspecific proteolytic activity | nonspecific proteolytic activity for human fibrinogen [13]: retained a low nonspecific proteolytic activity | cleavage of Medaka gelatinase A fusion protein [14]: no serious reduction of the D4K (SEQ ID NO: 1) cleaving activity | cleavage of hK8 fusion protein [2]: no serious reduction of the D4K (SEQ ID NO: 1) cleaving activity | enzyme activity of the EP protease itself with Pro-Phe-Arg-MCA [3]: none of the Medaka EP proteases (wild-type EP-1, K63R, E173A, or E193A) showed any significant enzyme activity | cleavage of human single-chain tPA fusion protein [15]: no serious reduction of the D4K (SEQ ID NO: 1) cleaving activity

B4: SBTI (protein)
chain: DFVLDNEGNPLENGGTYYILSDITAFGGIRAAPTGNERCPLTVVQSRNELDKGIGTIISSPYRIRFIAEGHPLSLKFDSFAVIMLCVGIPTEWSVVEDLPEGPAVKIGENKDAMDGWFRLERVSDDEFNNYKLVFCPQQAEDDKCGDIGISIDHDDGTRRLVVSKNKPLVVQFQKLDKESL
Inhibition (%) EP-1 [16]: 99% | Inhibition (%) EP-2 [17]: 99%
